The supplement of paper PMC9170038

Tested on: MS2 coat protein
Assay: apparent KD of MS2 coat protein; designed switch direction (-1 OFF switch, 1 ON switch): -1; higher = weaker reporter binding
Outline: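 SNAP-549-labelled MS2 coat protein was titrated, doubling from 0.7 or 1.5 nM to 3 µM, over designed RNA switches transcribed on Illumina chips by stalled E. coli RNA polymerase. Runs were done without input, with 200 uM small-molecule ligand, or with an oligonucleotide input. Apparent KD is the per-design median over clusters of curve-fitted normalised fluorescence.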

[1] = input ligand: microRNA oligo, concentration not stated
[2] = Eterna round: R95, input ligand: FMN 200 uM
[3] = Eterna round: R95, input ligand: microRNA oligo, concentration not stated
[4] = Eterna round: R95, input ligand: none

| Sequence | apparent KD of MS2 coat protein (input ligand: FMN 200 uM) [nM] | apparent KD of MS2 coat protein (input ligand: none) [nM] | apparent KD of MS2 coat protein [3] [nM] | also measured |
| --- | --- | --- | --- | --- |
| UAUGAUUUAGGAUAUUGUACUGCUGACAUGAGGAUCACCCAUGUAUGCUAACUCGGCCGUCGAGAAGGAAAUUAUG [BotMod 28 - Jieux - Exclusion 5] (Eterna round: R97, puzzle: Exclusion 5) | 26.1 | 52.6 | – | – |
| UAAGCAAGUGAGCCGAUUCACAUGAGGAUCACCCAUGUAAGAGAGGAUAUUUGAUUGGAUCGAUUAGAGAAGGUUCUAAUGUGG [Eternabot solution 25] (Eterna round: R96, puzzle: Exclusion NG 3) | 87.2 | 37.2 | – | apparent KD of MS2 coat protein [1]: 28.9 nM |
| AUAAUGUAAGGAUAUCAGUCGACUAGCGAUAGCUAGUCGACUGAGAAGGUACAUGAGGAUCACCCAUGUGAAUA [E4/16-A4] (Eterna round: R97, puzzle: Exclusion 4) | 213 | 46 | – | – |
| UAGAAGUUCAACGAGUGAGACAUGAGGAUCACCCAUGUGGUGGUAGGGAACAAGCUUUUUGCACGUACUUAUGAGGA [JR_SV3TOV1_Sub005] (puzzle: Sensor v3, turn-off variant 1) | – | – | 269 | apparent KD of MS2 coat protein [2]: 368 nM; apparent KD of MS2 coat protein [4]: 414 nM |
| CCCAUGUCAGGAUAUUAAUUGAGCAGGAAGCCCUGUCCACUUGAGAAGGGACAUGAGGAUCACCCAUGUAAAAC [Radiaena] (Eterna round: R97, puzzle: Exclusion 4) | 138 | 417 | – | – |
| ACUCAACAGUAGGAUAUCAUCAAACUAUUGUGAUGAGAAGGACUGACAUGAGGAUCACCCAUGUUAACGUGAUG [Mod of Brourd 2 - Jieux - Exclusion 6] (Eterna round: R97, puzzle: Exclusion 6) | 32.1 | 21.5 | – | – |
| UCAUACGGUGAGGAUAUCUCCACUAAAGUGUGAAGAGAAGGCGCUACAUGAGGAUCACCCAUGUUUAUGGGCAG [Ex-6 Malc#14] (puzzle: Exclusion 6) | – | – | 56.5 | apparent KD of MS2 coat protein [2]: 27 nM; apparent KD of MS2 coat protein [4]: 116 nM |
| AGUACUAACACGAUAGUGUUAGUACAAUAAGCUUGUGUUACAUGAGGAUCACCCAUGUCCUCAUAAGCUCGUCUUAA [Mat - Sensor v3 - Turn-off var 2 - D59] (puzzle: Sensor v3, turn-off variant 2) | – | – | 594 | apparent KD of MS2 coat protein [2]: 44.3 nM; apparent KD of MS2 coat protein [4]: 35.3 nM |
| GAUUAACAUGAGGAUCACCCAUGUGAGGAUAUACGAGAAUAGAUUUCGAUCAGAUAGAGUAGAAGGCACAGAUA [EX1 #1] (Eterna round: R97, puzzle: Exclusion 1) | 44.9 | 27 | – | – |
| GCAAGAAUAGGAUAUACAACAUGCCAGCUUCUUUACAACGCACAUGAGGAUCACCCAUGUAGAAGGGUUCUCUA [Exclusion-2-#13] (Eterna round: R97, puzzle: Exclusion 2) | 209 | 261 | – | – |
| UUCAGUCAUCCUUAUUGUUACAUGAGGAUCACCCAUGUUUGUUUAAUUAAGUUUUGUAAGUUUGUUGUUCGUUUUAU [JR_STOV1_v2_Sub074] (Eterna round: R97, puzzle: Sensor, turn-off variant 1) | 154 | 173 | – | – |
| UCACGGGAUUGAGGAUAUAUAUAAAUUUAUACAAUAGAAGGCAAAUUUUUAGUUUUUUCACUUUACAUGAGGAUCACCCAUGUU [JR_ExcBG1_Sub083] (Eterna round: R96, puzzle: Exclusion NG 1) | – | – | – | apparent KD of MS2 coat protein [1]: 20.1 nM |
| AUUUGCACGCUGCGGUCCUACAUGAGGAUCACCCAUGUGGUCUGGUGGCGUGGGUCGCCGGACUUGGCUCGUCUUGU [salish99_S_TOV1_R5_033] (Eterna round: R97, puzzle: Sensor, turn-off variant 1) | 18.7 | 19.5 | – | – |
| GGAAGGCGAGGAUAUACAAUAAAGAAAGGGAAAGACGUGAGACAUGAGGAUCACCCAUGUAGAAGGCGCGGAGA [AK-MS2ROC-r4-exclusion2-12] (Eterna round: R97, puzzle: Exclusion 2) | 40.1 | 32.4 | – | – |
| GAUAGAGAGCAGGAUAUCUUGGGUAAGUAUCGUAGAGAAGGGCUCACAUGAGGAUCACCCAUGUGGUCCAAGAU [JL Dibiri mod 01] (puzzle: Exclusion 6) | – | – | 14.4 | – |
| CGUAGCAAAGUGAGGAUAUCUAGAGCCUCGGCUCUAGAGAAGGCACAUGAGGAUCACCCAUGUGGUCAGCUACG [BmEx4/8-A2] (Eterna round: R97, puzzle: Brourd's mod of Exclusion 4) | 1050 | 101 | – | – |
| CAGUACUACAAGCUUGGGAACAUGAGGAUCACCCAUGUUCGUCUUAUUGAUCUAGGUACGCUGACGUACCUAGAUCU [JL-sv1-2.17 Brourd mod] (puzzle: Sensor v3, turn-off variant 1) | – | – | 27.1 | apparent KD of MS2 coat protein [2]: 16.5 nM; apparent KD of MS2 coat protein [4]: 14.7 nM |
| AGGGAACCCAAGGAUAUUGAGAGUUAAGCCACUUAAGAAGGUGGUACAUGAGGAUCACCCAUGUCCCUUGCAGA [Eternabot (L1) Solution 6] (Eterna round: R97, puzzle: Exclusion 6) | 38.3 | 41.6 | – | – |

| Sequence | apparent KD of MS2 coat protein (input ligand: FMN 200 uM) [nM] | apparent KD of MS2 coat protein (input ligand: none) [nM] | apparent KD of MS2 coat protein [3] [nM] | also measured |
| --- | --- | --- | --- | --- |
| UUAAUUCGGAUUCUUGAAAUACAUGAGGAUCACCCAUGUUCACAGGAUAUUGAUUAUGUUAGUAACAAGAAGGGUGUAACAUAU [JR_ExcNG3_Sub036] (Eterna round: R96, puzzle: Exclusion NG 3) | 87.1 | 28.7 | – | apparent KD of MS2 coat protein [1]: 31 nM |
| UUAAUGUCAGGAUAUGCUUAAUAUAUUAUAUUAUAAUAUAUACAUGAGGAUCACCCAUGUAGAAGGGACAUUAU [LRO-Excl2-03-Fireball XL5] (Eterna round: R97, puzzle: Exclusion 2) | 26.8 | 38.2 | – | – |
| UUACGACAUGAGGAUCACCCAUGUUAGGAUAUGUGGCGAGAGCGCUAGCCUCGGGCCAACAGAAGGAAUAGGGC [Eternabot (L2) Solution 35] (Eterna round: R97, puzzle: Exclusion 1) | 53.4 | 58.5 | – | – |
| UGUUGUUCAGGAUAUGAUGUAUUAUACAUGAGGAUCACCCAUGUGGGUCCUGAUUUGGCGUCAGAAGGGAAUGUUG [salish99_ex5_r4_110] (Eterna round: R97, puzzle: Exclusion 5) | 205 | 150 | – | – |
| CUGUUACAUGAGGAUCACCCAUGUGAGGAUAUGGUUCGGUACUGUCCUGUCGCGUACUCCAGAAGGCACGUGUU [1st #36] (Eterna round: R97, puzzle: Exclusion 1) | 46.5 | 36.5 | – | – |
| AGACAGUGAGGAUAUGCAGUCGGUGUCACCUGAUGAGAAGAACAUGAGGAUCACCCAUGUAGAAGGCACAGGAA [Tearrice] (puzzle: Exclusion 2) | – | – | 40.6 | – |
| GAGAUACAUGAGGAUCACCCAUGUGAGGAUAUGAGUCAGUCACGGUGACGUGGCUGACUCAGAAGGCACAAAGG [Mat - Exclusion 1 - JL Mod - D35] (Eterna round: R97, puzzle: Exclusion 1) | 88.9 | 150 | – | – |
| AAGUAUAGAGGAUAUAGUGAGUACUACAUGAGGAUCACCCAUGUUCUUCAAAGCGUAUUUCUAGAAGGCUGAUGAA [EX-5 Malc#15] (puzzle: Exclusion 5) | – | – | 38.8 | apparent KD of MS2 coat protein [2]: 58.4 nM; apparent KD of MS2 coat protein [4]: 51.5 nM |
| UUAAACGGAGGAUAUACAUUUUUUUUAUUAUCCUCAUUAAAACAUGAGGAUCACCCAUGUAGAAGGCCGAAAUU [Mat - Exclusion 2 - Mod of Hog - D86] (puzzle: Exclusion 2) | – | – | 91.5 | – |
| GAUCCACAUGAGGAUCACCCAUGUGAGGAUAUGAUACUAUGUACUUCGGUACAUAGUAUCAGAAGGCACAGGUC [Ex1-3: 56] (puzzle: Exclusion 1) | – | – | 50.6 | – |
| AAUACAAGCUAUUGAUCCCACAUGAGGAUCACCCAUGUAUAUGGCGGUGACACCUCCAUGACGAUAGCUCGUCUUAU [Sensor-V1 #58] (Eterna round: R97, puzzle: Sensor, turn-off variant 1) | 567 | 1360 | – | – |
| GGUGCGUUUGUGAGGAUAUGCUGGUCCUUGGUUCGGCAGAAGGCACAUGAGGAUCACCCAUGUGGUGUCGCUCC [salish99_Bmod_Ex4_050] (puzzle: Brourd's mod of Exclusion 4) | – | – | 36.4 | – |
| AGAUUAAAAGUAAGGAUAUGAUGCAGGAAACUGCGUCAGAAGGUACAUGAGGAUCACCCAUGUUAAACUAAUUU [Explosion 6 - Jieux - Brourd's mod of Exclusion 4] (Eterna round: R97, puzzle: Brourd's mod of Exclusion 4) | 19.4 | 14.4 | – | – |
| UAUAUAUAGUAAGGAUAUGUAAUUAUUUAAUAAACAGAAGGUACUGACAUGAGGAUCACCCAUGUUUUAGUGUGGGCAUGUAGA [JMF's solution 41] (Eterna round: R96, puzzle: Exclusion NG 1) | – | – | – | apparent KD of MS2 coat protein [1]: 69.4 nM |
| GACCAGGCAGGAUAUACAUGAGGAUCACCCAUGUGUCUGCGUUGGGCACGUGAACACGGUAGAAGGGCCUUGAC [ChP 13.04.2015 #15] (puzzle: Exclusion 3) | – | – | 12.8 | – |
| UUGUUAUAUGAAGGAUAUACUUAACAUGAGGAUCACCCAUGUGGUGUUGUGAGUGAGUGAGUUUAGUAGAAGGUCAAUGAUUUU [JMF's solution 73] (Eterna round: R96, puzzle: Exclusion NG 2) | 513 | 344 | – | apparent KD of MS2 coat protein [1]: 309 nM |
| GCUUGUGGGCAAGGAUAUCCUACGUUGUUCUGGUUCGUGUCUGUCACAUGAGGAUCACCCAUGUGGGAGAAGGUGCAUUUGGUU [Design 60] (Eterna round: R96, puzzle: Exclusion NG 2) | 15.4 | 17.2 | – | apparent KD of MS2 coat protein [1]: 12.4 nM |
